Test results: patent publication US20100092465A1, “TREATMENT OF GRAFT-VERSUS-HOST DISEASE” (priority 2006, published 2010)

Assay: Pharmacokinetics of soluble receptors in female C57B1/6 mice
Type: in vivo, mouse
Details: for terminal / circulatory half-life, comparison in words: human Fc5 fusion versus mouse Fc1 fusion
Method: Studies were performed to evaluate the pharmacokinetics of the mouse (IL-27RAm(mFc1)) and human (IL-27RA-Fc5) soluble receptors in female C57B1/6 mice.
Serum was generated from each sample and analyzed by a qualified enzyme-linked immunosorbant assay (ELISA). The resulting mean serum concentration versus time profiles were then subjected to noncompartmental pharmacokinetic analyses. The following pharmacokinetic parameters were calculated: C0 and Cmax (extrapolated concentration at time zero and maximum serum concentration, respectively), Tmax (time to achieve maximum concentration), t1/2 λz (terminal half-life), AUC0-t (area under the concentration versus time curve from time zero to the last measurable time point), AUCINF (area under the concentration versus time curve extrapolated to infinity), Cl or Cl/F (clearance or clearance divided by bioavailable fraction, respectively), VSS or VZ/F (steady state volume of distribution or volume of distribution divided by the bioavailable fraction, respectively), and F (bioavailable fraction).

**Q.** With “human IL-27RA-Fc5: human IL27RA extracellular domain (amino acids 1 to 512 of SEQ ID NO:5) fused to Fc5, effector minus human gamma1 Fc; SEQ ID NO:3” as the substance, how does the AUC0-120 (IP, 100 μg) read?
**A.** Its AUC0-120 is 1310 µg·h/mL.

**Q.** And the AUCINF (IP, 100 μg)?
**A.** The AUCINF was 1380 µg·h/mL.

**Q.** And the Cl/F (IP, 100 μg)?
**A.** Its Cl/F is 0.0725 mL/h.

**Q.** What about the Tmax (IP, 100 μg) of the same substance?
**A.** Its Tmax is 3 h.

**Q.** And the “t1/2 λz” value (IP, 100 μg)?
**A.** Its value is 28.3 h.

**Q.** What about the Cmax (IP, 100 μg, serum) of the same substance?
**A.** The Cmax was 35200 ng/mL.

**Q.** And the AUC0-120 (IV, 100 μg)?
**A.** The AUC0-120 was 1400 µg·h/mL.

**Q.** What about the AUCINF (IV, 100 μg) of the same substance?
**A.** Its AUCINF is 1510 µg·h/mL.

**Q.** And the Cl (IV, 100 μg)?
**A.** The Cl was 0.0664 mL/h.

**Q.** And the Vss (IV, 100 μg)?
**A.** The Vss was 2.54 mL.

**Q.** What about the “t1/2 λz” value (IV, 100 μg) of the same substance?
**A.** Its value is 34.9 h.

**Q.** And the Co (IV, 100 μg, serum)?
**A.** The Co was 122 µg/mL.

**Q.** And the AUC0-120 (SC, 100 μg)?
**A.** Its AUC0-120 is 1130 µg·h/mL.

**Q.** And the AUCINF (SC, 100 μg)?
**A.** The AUCINF was 1210 µg·h/mL.

**Q.** And the Cl/F (SC, 100 μg)?
**A.** Its Cl/F is 0.0828 mL/h.

**Q.** And the Tmax (SC, 100 μg)?
**A.** The Tmax was 6 h.

**Q.** What about the “t1/2 λz” value (SC, 100 μg) of the same substance?
**A.** The value was 29.3 h.

**Q.** What about the Cmax (SC, 100 μg, serum) of the same substance?
**A.** Its Cmax is 21000 ng/mL.

**Q.** What about the “terminal / circulatory half-life, comparison in words” value (listed as fusion protein comprising an Fc fragment that had been engineered to remove effe) of the same substance?
**A.** Its value is “markedly improved circulatory half-life”.

**Q.** And the “terminal / circulatory half-life, comparison in words” value (listed as human Fc5 fusion protein)?
**A.** The value was “much longer terminal half-life”.
